Results: patent US20030235860A1, “Interactions between AR, ER, TR2, and TR4” (priority 1999, published 2003)
Blank lines part the entries; values can stand above or below the molecule they belong to.

Biological target: T1, GST-TR4 (Homo sapiens, UniProt P49116)
T1 construct: which used the full length of TR4 containing AF-1; made in house
T1 sequence (P49116 1-615 isoform P49116-2 N175S/W419R/A428G/K503N/L504W/A613V): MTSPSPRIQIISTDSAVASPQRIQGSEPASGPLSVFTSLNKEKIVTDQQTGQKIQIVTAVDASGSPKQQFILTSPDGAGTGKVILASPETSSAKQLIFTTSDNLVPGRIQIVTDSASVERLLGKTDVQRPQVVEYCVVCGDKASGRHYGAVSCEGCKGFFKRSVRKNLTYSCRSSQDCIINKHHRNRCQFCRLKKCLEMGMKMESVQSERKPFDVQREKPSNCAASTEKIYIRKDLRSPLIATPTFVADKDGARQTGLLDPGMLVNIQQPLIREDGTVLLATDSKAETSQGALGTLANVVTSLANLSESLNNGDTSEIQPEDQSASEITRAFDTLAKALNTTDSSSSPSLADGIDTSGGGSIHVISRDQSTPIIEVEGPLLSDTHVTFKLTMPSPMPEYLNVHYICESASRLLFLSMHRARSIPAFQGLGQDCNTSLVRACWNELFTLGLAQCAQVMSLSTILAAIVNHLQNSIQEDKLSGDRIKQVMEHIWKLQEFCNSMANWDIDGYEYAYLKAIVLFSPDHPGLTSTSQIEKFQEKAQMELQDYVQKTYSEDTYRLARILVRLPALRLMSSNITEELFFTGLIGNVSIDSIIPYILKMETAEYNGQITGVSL
Test: GST-TR4 pull-down assay
Type: binding
Conditions: for Interaction with GST-TR4 fusion protein: [35S]-methionine labeled proteins, absence of E2, Example 3; for Interaction with GST-TR4 in pull-down assay: in vitro translated 35S methionine-labeled proteins, Example 1
Method: GST-TR4 fusion protein and GST control protein were purified as instructed by the manufacturer (Pharmacia). […] of in vitro translated 35S methionine-labeled proteins were used to perform a pull-down assay as described previously. Cacailles, et al., EMBO 14, 3741-3751 (1995).
Using a GAL4-TR4 fusion protein as bait, the yeast two-hybrid system was used to isolate several potential TR4 associated proteins. […] A GST-TR4 fusion protein pull-down assay was performed to further confirm the result. GST-TR4 fusion protein and GST control protein were purified as instructed by the manufacturer (Pharmacia).
A GST pull-down assay was performed according to the methods described previously (Lee, Y. et al. (1999) Proc. Natl. Acad Sci. USA. 96(26) 14724-9).
Briefly, the GST fusion protein and GST control protein were expressed in an Escherichia coli strain BL21 (DE3) pLys bacterial culture and recovered on glutathione-Sepharose-4B beads. Equal amounts of GST fusion protein bound to glutathione-Sepharose-4B beads were incubated for 2 h at 4° C. with 5 μl of in vitro translated [^35S]methionine-labeled protein in a total volume of 100 µl of incubation buffer (20 mM HEPES/pH 7.9, 150 mM KCl, 5 mM MgCl2, 0.5 mM EDTA, 0.5 mM dithiothreitol, 0.1% Nonidet P-40, 1 mg/ml bovine serum albumin, and 10% glycerol), and protease inhibitor mixture (1 mM phenylmethylsulfonyl fluoride, 1 μg/ml aprotinin, leupeptin, and pepstatin). The beads were then washed three times with wash buffer (20 mM Tris/pH 8.0, 100 mM NaCl, 1 mM EDTA, and 0.5% Nonidet P-40), boiled in 2×SDS sample buffer, loaded onto SDS-polyacrylamide gels, and visualized by autoradiography.

Molecule: AR: androgen receptor, SEQ ID NO:31
Interaction with GST-TR4 fusion protein: binds well | Interaction with GST-TR4 in pull-down assay: physically interact

Interaction with GST-TR4 fusion protein: unable to interact | Interaction with GST-TR4 in pull-down assay: no interaction
Molecule: RXR: retinoid X receptor, another member of the steroid receptor superfamily

B1: TR2: human testicular orphan nuclear receptor 2, 603 amino acids (protein, UniProt P13056 1-603, looked up)
chain: MATIEEIAHQIIEQQMGEIVTEQQTGQKIQIVTALDHNTQGKQFILTNHDGSTPSKVILARQDSTPGKVFLTTPDAAGVNQLFFTTPDLSAQHLQLLTDNSPDQGPNKVFDLCVVCGDKASGRHYGAVTCEGCKGFFKRSIRKNLVYSCRGSKDCIINKHHRNRCQYCRLQRCIAFGMKQDSVQCERKPIEVSREKSSNCAASTEKIYIRKDLRSPLTATPTFVTDSESTRSTGLLDSGMFMNIHPSGVKTESAVLMTSDKAESCQGDLSTLANVVTSLANLGKTKDLSQNSNEMSMIESLSNDDTSLCEFQEMQTNGDVSRAFDTLAKALNPGESTACQSSVAGMEGSVHLITGDSSINYTEKEGPLLSDSHVAFRLTMPSPMPEYLNVHYIGESASRLLFLSMHWALSIPSFQALGQENSISLVKAYWNELFTLGLAQCWQVMNVATILATFVNCLHNSLQQDKMSTERRKLLMEHIFKLQEFCNSMVKLCIDGYEYAYLKAIVLFSPDHPSLENMEQIEKFQEKAYVEFQDYITKTYPDDTYRLSRLLLRLPALRLMNATITEELFFKGLIGNIRIDSVIPHILKMEPADYNSQIIGHSI
modifications: full-length
notes: human testicular orphan nuclear receptor 2, 603 amino acids
Interaction with GST-TR4 in pull-down assay: physically interact
